Source: patent US20240190986A1 (ZHEJIANG NANOMAB TECHNOLOGY CENTER, published 2024)
Residue numbers refer to the chain shown, from its start.

B1: M137 (VHH)
VHH: QVQLVESGGGLVQAGGSLSLSCAASGSLSSINAMGWYRQLPEMRQLVATMGSDGKTYYADSVKGRFTISRDYAKYTVSLQMNNLRPEDTAIYYCAADRFGAPIHDVDYWGKGTLVTVSV
notes: Nanoantibody in TG1 supernatant in the screening ELISA; also called clone M137
B2: M156 (VHH)
VHH: QVQLVESGGGLVQAGGSLRLSCAVSGISFEYYAIGWFRQAPGKEREAVSCTTSGTTSGGGVTDYADSLKGRFTISRDVAKNTVYLQMNNLTPEDTAVYYCAADIHCRGYVLFVPSDFGNWGQGTQVTVSS
notes: Nanoantibody in TG1 supernatant in the screening ELISA; also called clone M156
B3: M050 (VHH)
VHH: EVQLQESGGGLVQAGGSLRLSCAASGAVSSINAMGWYRQTPEKVRKLVATMGSGGNTYYADSVKGRFTISRDYAKNTVALQMNNLIPEDTAVYYCAADKFGADIHEVDYWGKGTLVTVSS
notes: Nanoantibody in TG1 supernatant in the screening ELISA; also called clone M050
B4: M182 (VHH)
VHH: QVQLVESGGGSVQAGGSLTLSCAASGAVSSINAMGWYRQTPEKVRQLVATMGSGGNTYYAASVKGRFTISRDYAKNTVALQMNHLLPEDTAVYYCAADRFGADIREVDYWGKGTQVTVSS
notes: Nanoantibody in TG1 supernatant in the screening ELISA; also called clone M182
B5: M129 (VHH)
VHH: QVQLVESGGGSAQAGGSLILSCVASANLFTIDALGWYRQAPGPKRELVAAISSGGNKYYADAVKGRFTISRDTLTKTMWLQMNNLKPEDTAMYYCAAEDYGLGQRSWGMGTQVTVSS
notes: Nanoantibody in TG1 supernatant in the screening ELISA; also called clone M129
B6: M119 (VHH)
VHH: EVQLVESGGGLVQPGGSLRLSCVASGSDLSFDAMGWYRQFSATVRERQLVVATSRDGRIYYGDSVKGRFTASRDNLKNSVDLEMNNLKPEDTAIYYCAAGDDPKNYDWGPGTQVTVSS
notes: Nanoantibody in TG1 supernatant in the screening ELISA; also called clone M119
B7: M047 (VHH)
VHH: QVQLVETGGGSVQAGGSLRLSCAASGSIASIDAMGWYRQVPGKEWERELVATISSSNSDNKYYKDSVKGRFTISTNIAKNTWYLQMNNLKPEDTAMYYCAAEDYDTKDRFWGQGTQVTVSS
notes: Nanoantibody in TG1 supernatant in the screening ELISA; also called clone M047
B8: M012 (VHH)
VHH: QVQLVESGGDLVQTGGSLRLSCVVSGSTFAINAMGWYRQAPGKERELVAAISSGGDSTHYADDVKGRFTISRDNAENTMYLQMKSLKPEDTAVYVCNARGCRDFHNPQALCVLRDYWGQGTQVTVSS
notes: Nanoantibody in TG1 supernatant in the screening ELISA; also called clone M012
B9: M001 (VHH)
VHH: EVQLVESGGGLVQAGGSLRLSCAASGSIFNINAMGWYRQAPGKEWERELVATISSSNSDNTYYKDSVKGRFTISTNTAKNTWYLQMNSLKPEDTAMYYCAAENYDRKDRYWGQGTQVTVSS
notes: Nanoantibody in TG1 supernatant in the screening ELISA; also called clone M001
B10: M003 (VHH)
VHH: B9 VHH with E1Q, A23T, S27N, N30S, A40P, S56T, D65E, Y104F, G112A
notes: Nanoantibody in TG1 supernatant in the screening ELISA; also called clone M003
B11: M132 (VHH)
VHH: QVQLVESGGGLVQAGGSLSLSCVASGDAFSFDAMGWYRQFSGKVNERQLVVATSRDGRTAYGERVKGRFTASRDNSKNTLSLVMNNLQVEDTAIYYCAAGDDPKDYYWGQGTQVTVSS
notes: Nanoantibody in TG1 supernatant in the screening ELISA; also called clone M132
B12: M010 (VHH)
VHH: QVQLVESGGGLVQAGGSLRLSCAASGSVSSINAMGWYRQGTGEVRKLVATMGSGGNTYYADSVKGRFFITRDYSKNTVSLQMNNLTPEDSATYYCAADRFGASIHEVDYWGKGTLVTVSS
notes: Nanoantibody in TG1 supernatant in the screening ELISA; also called clone M010
B13: M044 (VHH)
VHH: QVQVVESGGGFVQAGGSLRLSCAASTPIISIAYMGWYRQISEKERQLVATINSGGKTYYADSVKGRFTISRDNAKNTLYLQMNMLKPEDTGMYYCAASNKDYNDYDPDWGQGTQVTVSS
notes: Nanoantibody in TG1 supernatant in the screening ELISA; also called clone M044; M044 antibody
B14: M005 (VHH)
VHH: EVQLVESGGGWVQSGGSLRLACAASGSSFGLNVVGWYRQAPDKQRELVASIGNGGRTTDYADSVKGRFTISSDNAKNTVFLQMNDLKPEDTAVYYCHLRASVTKGYWGQGTQVTVSS
notes: Nanoantibody in TG1 supernatant in the screening ELISA; also called clone M005
B15: M126 (VHH)
VHH: B14 VHH with S27D, Q39L, V93M, A100V, K104E
notes: Nanoantibody in TG1 supernatant in the screening ELISA; also called clone M126
B16: M143 (VHH)
VHH: EVQLVESGGGLVQAGGSLRLSCSASEKTFSIKYMGYYRQGPGIERKLVATIDTDGKTWYADSVKGRFTISRENGENEIGLEMNRLKPEDTAMYYCAGETGTYPKPEYWGQGTQVTVSS
notes: Nanoantibody in TG1 supernatant in the screening ELISA; also called clone M143
B17: M032 (VHH)
VHH: EVQLVESGGGSVQAGGSLKISCAASGSVIDIGAMGWYRHITEKERKLVATINAGGNTYYADSVKGRFTISRDNAKYTVYLQMNSLKPEDTAMYYCAAEDINYTGTEAYYWGQGTQVTVSS
notes: Nanoantibody in TG1 supernatant in the screening ELISA; also called clone M032
B18: M118 (VHH)
VHH: EVQLVESGGGLVQAGGSLTLSCAASEHTFTIDAMGYYRQIPGRRNERQLVAAAGRTGTTYYNDAVKDRFTIYRDTSKETIILQMNNLRPEDTTMYYCAVERYSDQSRFFGPGTQVTVSS
notes: Nanoantibody in TG1 supernatant in the screening ELISA; also called clone M118
B19: M2339-z11-1 (antibody, IgG4, V domains shown)
VH: EVQLVASGGGLVQPGGSLRLSCALSGFTLRELDEFAIGWFRQAPGKEREGVSCISGTGGITHYADSVKGRFTISRDNSKTTVYLQMNSLRAEDTAVYYCAADERCTDRLIRPPTYWGQGTQVTVSS
notes: Humanized variant of M2339
B20: M2339-z11-17 (antibody, IgG4, V domains shown)
VH: B19 VH with V2L, V5G, T80N, V82L
notes: Humanized variant of M2339
B21: M2339-z11-13 (antibody, IgG4, V domains shown)
VH: B19 VH with E1Q, V2L, V5G, R90N, A91S
notes: Humanized variant of M2339
B22: M2339-z11-14 (antibody, IgG4, V domains shown)
VH: B19 VH with E1Q, V2L, V5G, N77I, S78A, T80N, R90N, A91S
notes: Humanized variant of M2339
B23: M2339-z11-7 (antibody, IgG4, V domains shown)
VH: B19 VH with V2L, V5G
notes: Humanized variant of M2339
B24: M2339-z11-11 (antibody, IgG4, V domains shown)
VH: B19 VH with E1Q, V2L, V5G, L24A, N77I, S78A, R90N, A91S
notes: Humanized variant of M2339
B25: M2339-z11-10 (antibody, IgG4, V domains shown)
VH: B19 VH with E1Q, V2L, A6E, N77I, S78A, R90N, A91S
notes: Humanized variant of M2339
B26: M2339-z11-8 (antibody, IgG4, V domains shown)
VH: B19 VH with E1Q, V2L, V5G, A6E, N77I, S78A, R90N, A91S
notes: Humanized variant of M2339
B27: M2339-z11-12 (antibody, IgG4, V domains shown)
VH: B19 VH with V5G, N77I, S78A, R90N, A91S
notes: Humanized variant of M2339
B28: M2339-z11-3 (antibody, IgG4, V domains shown)
VH: B19 VH with V2L
notes: Humanized variant of M2339
B29: M2339-z11-4 (antibody, IgG4, V domains shown)
VH: B19 VH with V5G
notes: Humanized variant of M2339
B30: M2339-z11-9 (antibody, IgG4, V domains shown)
VH: B19 VH with E1Q, V2L, N77I, S78A, R90N, A91S
notes: Humanized variant of M2339
B31: M2339-z11-6 (antibody, IgG4, V domains shown)
VH: B19 VH with A91S
notes: Humanized variant of M2339
B32: M2339-z11-16 (antibody, IgG4, V domains shown)
VH: B19 VH with E1Q, V2L, V5G, N77I, S78A
notes: Humanized variant of M2339
B33: M2339-z11-2 (antibody, IgG4, V domains shown)
VH: B19 VH with E1Q
notes: Humanized variant of M2339
B34: M2339-z11-15 (antibody, IgG4, V domains shown)
VH: B19 VH with E1Q, V2L, V5G, N77I, S78A, V82L, R90N, A91S
notes: Humanized variant of M2339
B35: M2339-z11-5 (antibody, IgG4, V domains shown)
VH: B19 VH with R90N
notes: Humanized variant of M2339

molecular target: T1, MD50 protein; experiment: ELISA, antigen coated, TG1 supernatant
T1 construct: range 487-580; also called proximal membrane fragment of mesothelin
T1 sequence (Q13421 495-588): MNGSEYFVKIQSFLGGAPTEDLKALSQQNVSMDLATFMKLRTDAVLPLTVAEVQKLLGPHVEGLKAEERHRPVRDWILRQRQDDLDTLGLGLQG

ELISA (OD450) | Binder
2.09 | B1
1.53 | B2
0.512 | B3
1.14 | B4
1.66 | B5
1.46 | B6
2.07 | B7
2.05 | B8
1.35 | B9
1.73 | B10
1.17 | B11
2.09 | B12
2.04 | B13
1.03 | B14
0.926 | B15
1.3 | B16
1.72 | B17
2.06 | B18

molecular target: T2, MSLN.Fc protein (human, UniProt Q13421 296-598, limits assumed); experiment: ELISA, antigen coated, TG1 supernatant
T2 construct: also called MSLN·hFc; MSLN protein; not shown: human IgG Fc fragment
T2 sequence (Q13421 other isoform, or with tags, fused parts or gaps limits assumed): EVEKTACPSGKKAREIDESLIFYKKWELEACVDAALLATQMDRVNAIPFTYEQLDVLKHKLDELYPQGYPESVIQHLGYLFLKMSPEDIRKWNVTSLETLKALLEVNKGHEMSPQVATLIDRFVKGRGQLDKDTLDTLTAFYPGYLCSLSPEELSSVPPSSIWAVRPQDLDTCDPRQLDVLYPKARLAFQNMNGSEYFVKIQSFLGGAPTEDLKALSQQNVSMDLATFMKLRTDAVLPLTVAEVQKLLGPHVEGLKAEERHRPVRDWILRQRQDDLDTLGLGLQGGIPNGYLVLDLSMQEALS

ELISA (OD450) | Binder
1.27 | B1
1.67 | B2
2.72 | B3
1.03 | B4
2.4 | B5
2.49 | B6
1.98 | B7
0.938 | B8
1.72 | B9
2.38 | B10
1.34 | B11
2.75 | B12
2.2 | B13
1.18 | B14
1.95 | B15
1.62 | B16
1.41 | B17
2.05 | B18

molecular target: T3, MSLN·His protein (human, UniProt Q13421 296-580, limits assumed); experiment: SPR (Biacore), antibody captured on protein A, MSLN·His as analyte
T3 construct: Bought protein; also called human MSLN·His antigen; not shown: His tag
Description: Referring to the method of humanizing nanoantibodies (J. Biol. Chem. 2009; 284: 3273-3284), M2339 was humanized using the method of CDR region transplantation. In IgBLAST (http://www.ncbi.nlm.nih.gov/igblast/), germline with high homology with M2339 was selected as the template in the database. Biacore was used to detect the affinity of the antibody before and after humanization. The purified antibody was flowed through the sensor chip pre-fixed with protein A, and the antibody was captured by protein A. Then five different concentrations of MSLN·His protein were used as the mobile phase, and the association time and dissociation time were 30 min and 60 min, respectively. The binding rate (ka), dissociation rate (kd), and equilibrium constant (kd) were analyzed using Biacore Evaluation Software 2.0 (GE).

T3 sequence (Q13421 other isoform, or with tags, fused parts or gaps limits assumed): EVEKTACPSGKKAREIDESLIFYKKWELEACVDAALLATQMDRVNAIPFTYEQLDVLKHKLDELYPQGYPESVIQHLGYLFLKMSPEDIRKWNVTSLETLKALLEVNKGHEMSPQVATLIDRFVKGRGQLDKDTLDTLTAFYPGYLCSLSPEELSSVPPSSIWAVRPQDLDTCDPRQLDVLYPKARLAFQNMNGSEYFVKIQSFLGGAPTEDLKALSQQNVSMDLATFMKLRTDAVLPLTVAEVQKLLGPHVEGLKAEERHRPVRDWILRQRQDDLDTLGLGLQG

Kd [nM] | koff [s⁻¹] | kon [M⁻¹ s⁻¹] | Binder
59.5 | 0.00608 | 102000 | B19
3.98 | 0.000156 | 39300 | B20
0.142 | 9.29e-06 | 65200 | B21
0.228 | 1.01e-05 | 44400 | B22
1.3 | 5.18e-05 | 39800 | B23
0.274 | 1.18e-05 | 43000 | B24
0.239 | 9.81e-06 | 41000 | B25
0.361 | 1.6e-05 | 44300 | B26
12.2 | 0.00102 | 83800 | B27
2.78 | 0.000132 | 47400 | B28
14.9 | 0.00119 | 80000 | B29
0.143 | 1.2e-05 | 83800 | B30
47.4 | 0.00824 | 174000 | B31
0.0961 | 6.52e-06 | 67800 | B32
0.279 | 1.74e-05 | 62300 | B33
0.16 | 1.14e-05 | 71000 | B34
37.7 | 0.00878 | 233000 | B35
